According to article PMC3229523, “Identification of Lactoferricin B Intracellular Targets Using an Escherichia coli Proteome Chip” (PLoS ONE, 2011):
Ends that are not written are not given here. * marks the point of attachment. Biotin = O=C1N[C@H]2[C@H](CS[C@H]2CCCCC(=O)*)N1

What was measured:
Experiment in all cases: peptide or protein array; E. coli proteome chip: purified His-tagged proteins printed in duplicate on Fullmoon slides, blocked with 1% BSA; 10 nM N-terminal biotinylated LfcinB with 1% BSA, room temperature, 1 h; detected with DyLight 649-labeled streptavidin, ratio to DyLight 549-labeled anti-His antibody; ProCAT normalisation, local cut-off; triplicate chips
Conditions in all cases: both partners purified
RpsB = RpsB (E. coli K-12, UniProt P0A7V0 1-241)
CadA = molecular target: T1, CadA (E. coli K-12, UniProt P0A9H3 1-715)
T1 construct: CadA, E. coli K-12
T1 sequence (looked up): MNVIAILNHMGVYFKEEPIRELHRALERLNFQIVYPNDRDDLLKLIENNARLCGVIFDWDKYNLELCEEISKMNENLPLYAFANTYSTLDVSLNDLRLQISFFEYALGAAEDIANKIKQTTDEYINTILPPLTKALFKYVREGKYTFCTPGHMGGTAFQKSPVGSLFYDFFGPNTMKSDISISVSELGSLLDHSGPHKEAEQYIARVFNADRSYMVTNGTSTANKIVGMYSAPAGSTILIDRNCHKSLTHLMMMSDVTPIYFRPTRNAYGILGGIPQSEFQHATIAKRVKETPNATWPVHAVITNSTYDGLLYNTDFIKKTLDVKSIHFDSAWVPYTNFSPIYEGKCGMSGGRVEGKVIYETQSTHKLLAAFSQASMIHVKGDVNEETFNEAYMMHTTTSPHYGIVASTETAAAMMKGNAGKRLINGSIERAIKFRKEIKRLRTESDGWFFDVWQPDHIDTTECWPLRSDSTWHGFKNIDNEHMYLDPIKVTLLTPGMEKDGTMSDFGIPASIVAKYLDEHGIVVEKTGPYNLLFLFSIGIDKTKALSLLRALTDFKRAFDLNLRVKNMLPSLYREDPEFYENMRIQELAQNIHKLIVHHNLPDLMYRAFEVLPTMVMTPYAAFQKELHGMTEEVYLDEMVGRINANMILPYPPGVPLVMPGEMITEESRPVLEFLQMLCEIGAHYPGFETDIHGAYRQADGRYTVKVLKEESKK

[1] = molecular target: T2, phosphoenolpyruvate carboxylase (E. coli K-12, UniProt P00864 1-883)
T2 construct: Ppc, phosphoenolpyruvate carboxylase, E. coli K-12; also called Ppc
T2 sequence (looked up): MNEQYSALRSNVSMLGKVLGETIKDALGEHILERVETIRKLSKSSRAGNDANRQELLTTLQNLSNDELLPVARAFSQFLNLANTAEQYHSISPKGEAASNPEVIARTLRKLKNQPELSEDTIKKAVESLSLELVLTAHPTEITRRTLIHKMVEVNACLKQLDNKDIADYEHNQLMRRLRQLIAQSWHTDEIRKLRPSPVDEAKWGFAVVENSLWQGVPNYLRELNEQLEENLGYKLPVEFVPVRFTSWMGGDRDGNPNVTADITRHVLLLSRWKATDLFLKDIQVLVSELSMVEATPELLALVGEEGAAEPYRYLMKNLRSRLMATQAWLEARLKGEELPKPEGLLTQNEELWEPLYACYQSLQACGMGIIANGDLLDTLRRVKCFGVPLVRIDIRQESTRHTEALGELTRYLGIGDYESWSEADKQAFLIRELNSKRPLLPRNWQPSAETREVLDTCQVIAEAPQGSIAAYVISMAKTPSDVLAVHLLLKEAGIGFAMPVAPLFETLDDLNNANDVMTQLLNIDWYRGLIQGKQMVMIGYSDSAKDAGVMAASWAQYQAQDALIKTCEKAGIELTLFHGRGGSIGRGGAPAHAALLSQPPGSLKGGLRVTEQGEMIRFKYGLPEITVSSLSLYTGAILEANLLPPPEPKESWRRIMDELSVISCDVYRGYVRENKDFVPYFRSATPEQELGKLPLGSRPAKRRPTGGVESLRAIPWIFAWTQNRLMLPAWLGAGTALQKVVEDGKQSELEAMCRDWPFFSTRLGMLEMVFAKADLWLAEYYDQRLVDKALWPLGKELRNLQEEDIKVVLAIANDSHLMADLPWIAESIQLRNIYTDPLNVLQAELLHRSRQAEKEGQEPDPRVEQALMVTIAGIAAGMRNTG

YhgA = molecular target: T3, YhgA (E. coli K-12, UniProt P31667 1-292)
T3 construct: YhgA, E. coli K-12
T3 sequence (looked up): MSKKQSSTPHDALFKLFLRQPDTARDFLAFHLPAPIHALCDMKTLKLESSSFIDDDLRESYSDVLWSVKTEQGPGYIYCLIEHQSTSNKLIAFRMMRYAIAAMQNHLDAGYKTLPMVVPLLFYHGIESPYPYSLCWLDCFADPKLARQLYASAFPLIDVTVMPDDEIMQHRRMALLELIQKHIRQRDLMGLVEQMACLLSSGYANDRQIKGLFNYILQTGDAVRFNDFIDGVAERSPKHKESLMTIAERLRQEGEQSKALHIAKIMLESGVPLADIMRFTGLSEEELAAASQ

Measured: binding result

B1: N-terminal biotinylated Lactoferricin B (peptide, UniProt P24627 36-60, looked up)
peptide: Biotin-FKCRRWQWRMKKLGAPSITCVRRAF
modifications: ends and bridges not checked
notes: lactoferricin B (LfcinB), cationic antimicrobial peptide of 25 amino acids; also called biotinylated LfcinB; biotin-labeled LfcinB; source: bought: Kelowna Inc
binds: all assays above
